In paper PMC3737472:

What was measured:
[1] = target: HSV-1 glycoprotein B ectodomain lacking the membrane proximal region, gB730t (residues 31-730) (herpes simplex virus type 1 (HSV-1)) (UniProt P06437); assay: negative stain EM; SEC fractions 19-22 (run without detergent) on carbon-coated grids at 2-20 ug/ml; 0.75% uranyl formate pH 5.5 or methylamine vanadate pH 8.0
[2] = target: HSV-1 glycoprotein B ectodomain lacking the membrane proximal region, gB730t (residues 31-730) (herpes simplex virus type 1 (HSV-1)) (UniProt P06437); assay: cryo-EM projection images; SEC fraction 22 (run without detergent) embedded in vitreous ice on holey carbon grids
[3] = target: HSV-1 glycoprotein B ectodomain lacking the membrane proximal region, gB730t (residues 31-730) (herpes simplex virus type 1 (HSV-1)) (UniProt P06437); assay: negative stain EM; SEC fractions 19-22 (run without detergent) on carbon-coated grids at 2-20 ug/ml; 0.75% uranyl formate pH 5.5 or methylamine vanadate pH 8.0; remark: listed apart in the source
[4] = target: HSV-1 glycoprotein B ectodomain lacking the membrane proximal region, gB730t (residues 31-730) (herpes simplex virus type 1 (HSV-1)) (UniProt P06437); assay: SEC; Superdex200 column run in 2x PBS; gB773t also run in 2x PBS/0.5% octyl-glucoside after overnight incubation with the detergent
[5] = target: HSV-1 glycoprotein B ectodomain lacking the membrane proximal region, gB730t (residues 31-730) (herpes simplex virus type 1 (HSV-1)) (UniProt P06437); assay: cryo-EM structure; cryo-ET subtomogram averaging of gB730t trimers bound to liposomes (phosphatidylcholine:cholesterol 1.7:1), pH 5.5, protein ca. 1 mg/ml, 1 hr at 37 C; 786 particles, 2.7 nm
[6] = target: HSV-1 glycoprotein B full-length ectodomain including the membrane proximal region, gB773t (residues 31-773) (herpes simplex virus type 1 (HSV-1)) (UniProt P06437); assay: negative stain EM; SEC fractions 19-22 (run without detergent) on carbon-coated grids at 2-20 ug/ml; 0.75% uranyl formate pH 5.5 or methylamine vanadate pH 8.0
[7] = target: HSV-1 glycoprotein B full-length ectodomain including the membrane proximal region, gB773t (residues 31-773) (herpes simplex virus type 1 (HSV-1)) (UniProt P06437); assay: cryo-EM projection images; SEC fraction 22 (run without detergent) embedded in vitreous ice on holey carbon grids

Row | Substance | stoichiometry N [1] | stoichiometry N [2] | stoichiometry N [3] | stoichiometry N [4] | stoichiometry N [5] | stoichiometry N [6] | stoichiometry N [7]
1 | HSV-1 glycoprotein B ectodomain lacking the membrane proximal region, gB730t (residues 31-730) (from UniProt P06437 31-730) (domain or fragment) | 3 | 3 | 6 | 3 | 3 | – | –
2 | HSV-1 glycoprotein B full-length ectodomain including the membrane proximal region, gB773t (residues 31-773) (from UniProt P06437 31-773) (domain or fragment) | – | – | – | – | – | 3 | 3
